Experimental data from article PMC4022893, “Evidence for Follicle-stimulating Hormone Receptor as a Functional Trimer*” (The Journal of Biological Chemistry, 2014).

T1: human follicle-stimulating hormone receptor on CHO-DUKX cell membranes (human, UniProt P23945 18-695)
T1 construct: follicle-stimulating hormone receptor, human, expressed in CHO-DUKX cells; Used as isolated membranes, not live cells; also called FSHR; hFSHR; source: CHO-DUKX cells expressing the human FSH receptor, membrane preparation (nitrogen cavitation, 100,000 x g pellet)
T1 sequence (looked up): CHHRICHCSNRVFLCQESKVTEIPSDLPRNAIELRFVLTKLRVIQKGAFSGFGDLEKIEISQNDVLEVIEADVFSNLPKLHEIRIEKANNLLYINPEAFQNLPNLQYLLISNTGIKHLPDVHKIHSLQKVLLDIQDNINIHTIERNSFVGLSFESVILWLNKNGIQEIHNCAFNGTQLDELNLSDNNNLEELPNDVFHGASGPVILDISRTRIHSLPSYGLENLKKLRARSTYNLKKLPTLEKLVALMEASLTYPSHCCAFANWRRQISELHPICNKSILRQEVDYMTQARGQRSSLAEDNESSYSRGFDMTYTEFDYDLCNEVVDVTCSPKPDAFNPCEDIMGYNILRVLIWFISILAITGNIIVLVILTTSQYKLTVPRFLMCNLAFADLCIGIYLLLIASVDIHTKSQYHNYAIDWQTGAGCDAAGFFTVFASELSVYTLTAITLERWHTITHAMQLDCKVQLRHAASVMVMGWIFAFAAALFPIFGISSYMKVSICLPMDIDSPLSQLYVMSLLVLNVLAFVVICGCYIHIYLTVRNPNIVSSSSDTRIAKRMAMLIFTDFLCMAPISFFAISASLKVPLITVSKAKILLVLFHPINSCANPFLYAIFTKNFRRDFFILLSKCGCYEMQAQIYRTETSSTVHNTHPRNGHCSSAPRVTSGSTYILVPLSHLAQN


Key:
[1] = molecular target: T1, human follicle-stimulating hormone …; assay: radioligand binding; 5 μg CHO-FSHR membrane with increasing concentrations of 125I-ligand; 10 mM Tris pH 7.4, 5 mM MgCl2, 0.2% BSA; 90 min at 37 °C; filtration; nonspecific binding with 500-fold excess of FSH; no Compound 5; conditions: one partner purified
[2] = molecular target: T1, human follicle-stimulating hormone …; assay: as above; conditions: one partner purified; remark: listed apart in the source
[3] = molecular target: the molecule itself; assay: crystal structure; FSH-FSHRED complex at 10 mg/ml, 20 °C, hanging drops, 0.1 M imidazole pH 8.0, 20% Jeffamine M-600; space group P3_(1)

receptor binding ratio of the N52D mutant to fully glycosylated FSH [1]	Kd [2]	Binder	stoichiometry N [3]
~3	0.4 nM	125I-N52D-FSH (FSH with Asn52 of the alpha-subunit mutated to aspartate) (ligand, no glycan at position 52; 125I label (chain not stated), glycoprotein hormones alpha chain (FSH alpha-subunit), human; Heterodimer; the other three glycosylation sites are unchanged; also called αN52D-FSH mutant; mutant-N52D; source: recombinant, prepared using the same protocols as the fully glycosylated FSH; 125I-labelled (PerkinElmer Life Sciences)) chain 1: not shown chain 2: NSCELTNITIAIEKEECRFCISINTTWCAGYCYTRDLVYKDPARPKIQKTCTFKELVYETVRVPGCAHHADSLYTYPVATQCHCGKCDSDSTDCTVRGLGPSYCSFGEMKE	
		full ectodomain of human FSHR (FSHRED, Ser16-Arg366) (domain or fragment, UniProt P23945 16-366, looked up, follicle-stimulating hormone receptor, human, full ectodomain, residues Ser16-Arg366; Three copies form a trimer in the crystal; also called FSHED; FSHR extracellular domain) SGCHHRICHCSNRVFLCQESKVTEIPSDLPRNAIELRFVLTKLRVIQKGAFSGFGDLEKIEISQNDVLEVIEADVFSNLPKLHEIRIEKANNLLYINPEAFQNLPNLQYLLISNTGIKHLPDVHKIHSLQKVLLDIQDNINIHTIERNSFVGLSFESVILWLNKNGIQEIHNCAFNGTQLDELNLSDNNNLEELPNDVFHGASGPVILDISRTRIHSLPSYGLENLKKLRARSTYNLKKLPTLEKLVALMEASLTYPSHCCAFANWRRQISELHPICNKSILRQEVDYMTQARGQRSSLAEDNESSYSRGFDMTYTEFDYDLCNEVVDVTCSPKPDAFNPCEDIMGYNILR	3
